Patent US20100041873A1

Target: Human IL-21 receptor on Baf3/KZ134/huIL-21R cells (human) (UniProt Q9HBE5)
Assay: cell-based or functional assay

Chain of Human IL-21 receptor on Baf3/KZ134/huIL-21R cells (human) (Q9HBE5 20-538): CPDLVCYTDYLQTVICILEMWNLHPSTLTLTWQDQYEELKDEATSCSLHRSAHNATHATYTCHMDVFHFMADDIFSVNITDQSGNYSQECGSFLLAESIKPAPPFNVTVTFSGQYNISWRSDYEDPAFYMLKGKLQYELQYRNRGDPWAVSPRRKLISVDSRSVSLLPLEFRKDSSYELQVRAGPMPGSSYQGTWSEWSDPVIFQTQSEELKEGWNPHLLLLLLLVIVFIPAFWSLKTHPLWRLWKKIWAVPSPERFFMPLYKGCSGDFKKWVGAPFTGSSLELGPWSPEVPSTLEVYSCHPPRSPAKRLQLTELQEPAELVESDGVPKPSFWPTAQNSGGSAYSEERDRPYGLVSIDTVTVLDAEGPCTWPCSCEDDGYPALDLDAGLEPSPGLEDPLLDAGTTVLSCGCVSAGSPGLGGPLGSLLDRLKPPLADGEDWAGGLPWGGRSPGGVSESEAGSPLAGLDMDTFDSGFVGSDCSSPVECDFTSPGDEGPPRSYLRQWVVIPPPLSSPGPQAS

- EC90, 24 hr STAT-Luciferase assay in Baf3/KZ134/huIL-21R cells: 1.08 nM
Substance: Recombinant rat IL-21 (from UniProt A3QPB9 18-146) (ligand)
